The text below walks through data of publication PMC8307404, “Crystal Structure-Guided Design of Bisubstrate Inhibitors and Photoluminescent Probes for Protein Kinases of the PIM Family” (Molecules, 2021).

Square brackets hold non-standard residues; d marks the D form. Peptide text beside a SMILES is read from it. * marks the point of attachment. X3 = O=C(CCCCCNCc1nc2c(sc3cc(Br)cnc32)c(=O)[nH]1)*

What all share (assay): Kinase profiling (radiometric filter-binding)
What all share (type): biochemical

One series addresses T1, IKK (Homo sapiens, UniProt O14920).
T1 sequence (O14920 1-756): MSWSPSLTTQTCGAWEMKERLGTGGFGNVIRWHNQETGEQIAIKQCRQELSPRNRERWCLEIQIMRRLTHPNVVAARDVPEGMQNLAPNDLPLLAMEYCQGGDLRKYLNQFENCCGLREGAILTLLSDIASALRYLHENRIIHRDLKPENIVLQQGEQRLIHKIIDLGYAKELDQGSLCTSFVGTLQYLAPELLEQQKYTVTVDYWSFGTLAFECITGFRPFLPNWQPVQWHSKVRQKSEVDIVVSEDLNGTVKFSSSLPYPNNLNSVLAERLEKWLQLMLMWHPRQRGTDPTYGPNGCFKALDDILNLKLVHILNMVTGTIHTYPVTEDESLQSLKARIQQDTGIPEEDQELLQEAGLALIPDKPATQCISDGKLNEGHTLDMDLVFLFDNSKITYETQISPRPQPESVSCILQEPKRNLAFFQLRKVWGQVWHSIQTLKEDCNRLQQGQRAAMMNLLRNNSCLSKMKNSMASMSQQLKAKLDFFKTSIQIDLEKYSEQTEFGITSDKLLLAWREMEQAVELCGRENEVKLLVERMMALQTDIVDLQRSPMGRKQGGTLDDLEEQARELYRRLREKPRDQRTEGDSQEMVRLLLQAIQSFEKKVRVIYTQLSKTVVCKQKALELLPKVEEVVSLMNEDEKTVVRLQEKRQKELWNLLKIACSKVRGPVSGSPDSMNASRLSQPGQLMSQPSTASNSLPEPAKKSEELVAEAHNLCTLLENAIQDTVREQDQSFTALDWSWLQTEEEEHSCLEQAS
The settings on record: first of two IKK lines (Greek letter lost), 1 µM inhibitor, read-out: Residual activity, %. The method, boiled down:
(§1)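 Human kinase, ATP (≤ KM) and test compound (1 µM final) were combined; phosphorylation was quantified by radiometric filter binding. Activity left was normalised to the control reaction without compound.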

The target in a further series is TESK1 (Homo sapiens, UniProt Q15569). Conditions: TESK1, 1 µM inhibitor; read-out: Residual activity, %. In outline:
as §1

The next series addresses DAPK1 (Homo sapiens, UniProt P53355). Conditions: DAPK1, 1 µM inhibitor; read-out: Residual activity, %. The method, boiled down:
as §1

For another series, the target named is T2, Aurora A (Homo sapiens, UniProt O14965).
T2 sequence (O14965 1-403): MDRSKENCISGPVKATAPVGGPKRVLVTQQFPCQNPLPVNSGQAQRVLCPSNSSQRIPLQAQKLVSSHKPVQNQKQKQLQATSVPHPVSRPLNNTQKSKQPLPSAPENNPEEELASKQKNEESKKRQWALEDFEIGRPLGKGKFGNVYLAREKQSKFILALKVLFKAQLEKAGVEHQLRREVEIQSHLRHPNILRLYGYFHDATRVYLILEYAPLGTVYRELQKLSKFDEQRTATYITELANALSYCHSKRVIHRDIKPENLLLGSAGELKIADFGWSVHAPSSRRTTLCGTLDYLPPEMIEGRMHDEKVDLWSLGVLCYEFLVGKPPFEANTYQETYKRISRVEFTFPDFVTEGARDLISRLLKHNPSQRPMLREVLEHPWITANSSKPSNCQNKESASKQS
Conditions: 1 µM inhibitor, read-out: Residual activity, %. In outline:
as §1

Another series addresses T3, DDR2 (Homo sapiens, UniProt Q16832).
T3 sequence (Q16832 22-855): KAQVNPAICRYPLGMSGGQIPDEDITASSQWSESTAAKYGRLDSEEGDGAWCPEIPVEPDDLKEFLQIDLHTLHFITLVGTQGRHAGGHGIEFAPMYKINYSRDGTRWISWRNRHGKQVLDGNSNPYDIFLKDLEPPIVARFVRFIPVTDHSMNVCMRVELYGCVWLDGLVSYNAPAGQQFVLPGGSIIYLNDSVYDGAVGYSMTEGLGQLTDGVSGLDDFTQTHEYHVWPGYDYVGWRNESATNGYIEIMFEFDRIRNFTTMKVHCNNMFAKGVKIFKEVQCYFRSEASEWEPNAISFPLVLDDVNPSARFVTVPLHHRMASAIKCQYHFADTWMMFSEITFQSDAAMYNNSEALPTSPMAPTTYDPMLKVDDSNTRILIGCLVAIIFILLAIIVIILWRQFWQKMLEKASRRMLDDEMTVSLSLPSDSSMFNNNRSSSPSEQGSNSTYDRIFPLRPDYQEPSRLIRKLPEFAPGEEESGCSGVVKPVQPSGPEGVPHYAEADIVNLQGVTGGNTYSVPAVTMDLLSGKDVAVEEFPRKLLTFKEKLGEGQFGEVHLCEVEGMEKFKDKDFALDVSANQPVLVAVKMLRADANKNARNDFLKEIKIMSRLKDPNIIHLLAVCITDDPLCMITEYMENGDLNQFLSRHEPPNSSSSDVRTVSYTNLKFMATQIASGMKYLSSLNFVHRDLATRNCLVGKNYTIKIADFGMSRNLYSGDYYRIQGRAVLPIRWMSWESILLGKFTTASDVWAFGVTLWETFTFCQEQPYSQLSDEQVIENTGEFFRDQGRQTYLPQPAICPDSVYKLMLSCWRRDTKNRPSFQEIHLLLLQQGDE
The settings on record: DDR2, 1 µM inhibitor; read-out: Residual activity, %. In outline:
as §1

A further series has as its target JNK1 (Homo sapiens, UniProt P45983). The settings on record: JNK1, 1 µM inhibitor; read-out: Residual activity, %. In outline:
as §1

The target of a further series is BTK (Homo sapiens, UniProt Q06187). Conditions: 1 µM inhibitor, read-out: Residual activity, %. In outline: as §1
Sequence of BTK (Q06187 whole entry): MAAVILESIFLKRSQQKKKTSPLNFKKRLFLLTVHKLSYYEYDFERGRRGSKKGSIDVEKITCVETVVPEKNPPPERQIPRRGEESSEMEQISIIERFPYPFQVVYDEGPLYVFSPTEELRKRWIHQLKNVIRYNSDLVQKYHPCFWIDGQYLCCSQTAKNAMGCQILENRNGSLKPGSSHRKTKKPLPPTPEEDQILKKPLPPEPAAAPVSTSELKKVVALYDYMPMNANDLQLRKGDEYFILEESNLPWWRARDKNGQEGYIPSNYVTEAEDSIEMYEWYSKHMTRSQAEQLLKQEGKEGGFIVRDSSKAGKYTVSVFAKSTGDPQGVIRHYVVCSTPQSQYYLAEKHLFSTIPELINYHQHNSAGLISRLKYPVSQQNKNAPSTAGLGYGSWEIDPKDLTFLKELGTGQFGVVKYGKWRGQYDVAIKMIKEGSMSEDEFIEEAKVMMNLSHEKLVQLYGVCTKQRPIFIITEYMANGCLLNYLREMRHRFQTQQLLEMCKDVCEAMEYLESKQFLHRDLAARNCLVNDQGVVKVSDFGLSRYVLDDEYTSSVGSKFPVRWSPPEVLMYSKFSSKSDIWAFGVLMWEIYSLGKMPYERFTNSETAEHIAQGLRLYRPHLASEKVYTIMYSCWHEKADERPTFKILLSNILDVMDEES

Sequence of JNK1 (P45983 whole entry): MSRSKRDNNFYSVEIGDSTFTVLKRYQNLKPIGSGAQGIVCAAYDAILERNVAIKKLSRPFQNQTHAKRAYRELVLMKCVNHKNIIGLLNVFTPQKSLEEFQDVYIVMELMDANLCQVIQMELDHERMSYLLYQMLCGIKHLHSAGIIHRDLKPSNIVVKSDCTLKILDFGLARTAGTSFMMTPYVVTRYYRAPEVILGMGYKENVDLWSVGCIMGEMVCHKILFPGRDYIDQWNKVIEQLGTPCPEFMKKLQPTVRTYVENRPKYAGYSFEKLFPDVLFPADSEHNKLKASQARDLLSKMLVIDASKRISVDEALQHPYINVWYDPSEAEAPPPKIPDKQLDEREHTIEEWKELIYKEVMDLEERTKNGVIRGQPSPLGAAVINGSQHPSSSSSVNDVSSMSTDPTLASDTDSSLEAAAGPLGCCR
Sequence of TESK1 (Q15569 whole entry): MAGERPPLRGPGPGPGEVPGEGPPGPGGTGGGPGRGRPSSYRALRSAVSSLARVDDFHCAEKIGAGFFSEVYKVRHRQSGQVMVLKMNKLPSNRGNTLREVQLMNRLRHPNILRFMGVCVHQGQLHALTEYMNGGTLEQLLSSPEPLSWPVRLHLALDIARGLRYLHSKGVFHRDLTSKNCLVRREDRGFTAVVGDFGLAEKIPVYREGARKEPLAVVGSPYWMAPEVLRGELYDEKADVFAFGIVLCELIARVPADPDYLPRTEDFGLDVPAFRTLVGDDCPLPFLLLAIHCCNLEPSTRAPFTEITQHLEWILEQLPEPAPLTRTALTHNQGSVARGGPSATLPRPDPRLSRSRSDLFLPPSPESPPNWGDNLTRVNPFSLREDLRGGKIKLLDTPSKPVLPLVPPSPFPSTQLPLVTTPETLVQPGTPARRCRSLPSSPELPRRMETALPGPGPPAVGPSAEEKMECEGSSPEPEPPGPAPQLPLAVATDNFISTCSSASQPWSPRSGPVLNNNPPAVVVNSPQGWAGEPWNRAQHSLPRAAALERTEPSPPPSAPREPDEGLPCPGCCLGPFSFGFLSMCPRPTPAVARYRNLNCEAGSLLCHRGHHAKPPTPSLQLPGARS
Sequence of DAPK1 (P53355 whole entry): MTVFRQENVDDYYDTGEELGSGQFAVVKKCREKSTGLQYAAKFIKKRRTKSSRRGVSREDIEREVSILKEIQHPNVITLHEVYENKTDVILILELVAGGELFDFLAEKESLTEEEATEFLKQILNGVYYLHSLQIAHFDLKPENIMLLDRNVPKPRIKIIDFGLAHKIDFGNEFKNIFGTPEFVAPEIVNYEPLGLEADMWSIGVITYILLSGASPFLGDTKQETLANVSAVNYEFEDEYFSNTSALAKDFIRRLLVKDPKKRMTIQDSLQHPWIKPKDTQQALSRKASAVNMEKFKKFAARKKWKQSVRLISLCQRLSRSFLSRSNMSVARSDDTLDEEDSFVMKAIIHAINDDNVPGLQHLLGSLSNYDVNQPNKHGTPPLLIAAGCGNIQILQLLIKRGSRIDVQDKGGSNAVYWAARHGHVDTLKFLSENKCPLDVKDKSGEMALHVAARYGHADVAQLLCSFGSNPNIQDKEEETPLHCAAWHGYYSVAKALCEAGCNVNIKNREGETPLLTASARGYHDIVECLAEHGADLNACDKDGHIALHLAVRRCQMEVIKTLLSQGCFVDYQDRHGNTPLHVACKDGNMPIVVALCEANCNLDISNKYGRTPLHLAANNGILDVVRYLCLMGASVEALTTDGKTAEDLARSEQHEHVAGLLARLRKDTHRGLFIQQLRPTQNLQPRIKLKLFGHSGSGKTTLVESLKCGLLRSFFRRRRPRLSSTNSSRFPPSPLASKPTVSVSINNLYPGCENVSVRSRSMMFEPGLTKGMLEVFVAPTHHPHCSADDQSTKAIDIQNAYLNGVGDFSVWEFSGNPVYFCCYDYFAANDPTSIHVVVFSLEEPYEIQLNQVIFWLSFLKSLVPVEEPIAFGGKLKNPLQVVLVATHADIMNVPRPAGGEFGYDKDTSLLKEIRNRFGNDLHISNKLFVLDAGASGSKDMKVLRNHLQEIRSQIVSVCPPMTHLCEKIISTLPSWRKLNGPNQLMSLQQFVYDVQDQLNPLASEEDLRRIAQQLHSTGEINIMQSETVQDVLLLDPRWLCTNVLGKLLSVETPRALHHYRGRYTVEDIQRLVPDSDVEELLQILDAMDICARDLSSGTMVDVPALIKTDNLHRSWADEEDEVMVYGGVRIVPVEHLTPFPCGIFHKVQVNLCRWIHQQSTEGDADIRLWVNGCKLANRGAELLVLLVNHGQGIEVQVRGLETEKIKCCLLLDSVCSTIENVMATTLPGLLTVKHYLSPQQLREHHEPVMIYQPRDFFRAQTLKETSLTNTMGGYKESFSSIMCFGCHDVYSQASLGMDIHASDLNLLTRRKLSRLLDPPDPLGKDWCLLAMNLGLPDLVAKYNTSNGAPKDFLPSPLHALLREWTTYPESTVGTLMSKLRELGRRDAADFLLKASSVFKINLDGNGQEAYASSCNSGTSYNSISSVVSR

Consider `N=C(N)NCCC[C@@H](NC(=O)CCCCCNC(=O)Cn1cnc2c(I)c(I)c(I)c(I)c21)C(=O)N[C@H](CCCNC(=N)N)C(=O)N[C@H](CCCNC(=N)N)C(=O)N[C@H](CCCNC(=N)N)C(=O)N[C@H](CCCNC(=N)N)C(=O)N[C@H](CCCNC(=N)N)C(=O)N[C@H](CCCCN)C(N)=O` [ARC-3125, TIBI-CH2-C(=O)-Ahx-(D-Arg)6-D-Lys-NH2], for which the remaining activity at 1 µM came to 80 ± 1% with IKK; 102 ± 3% with TESK1; 18 ± 1% with DAPK1; 84 ± 1% with Aurora A; 84 ± 13% with DDR2; 82 ± 13% with JNK1. In the series with BTK, the remaining activity at 1 µM is 31 ± 2%.

For `N=C(N)NCCC[C@@H](NC(=O)CCCCCNCc1nc2c(sc3cc(Br)cnc32)c(=O)[nH]1)C(=O)N[C@H](CCCNC(=N)N)C(=O)N[C@H](CCCNC(=N)N)C(=O)N[C@H](CCCNC(=N)N)C(=O)N[C@H](CCCNC(=N)N)C(=O)N[C@H](CCCNC(=N)N)C(=O)N[C@H](CCCCN)C(N)=O` [ARC-3126, BPTP-Ahx-(D-Arg)6-D-Lys-NH2] (X3-[dR][dR][dR][dR][dR][dR][dK]-NH2), the remaining activity at 1 µM with IKK was found to be 104 ± 2%; with TESK1, 99 ± 14%; with DAPK1, 49 ± 18%; with Aurora A, 132 ± 8%; with DDR2, 93 ± 3%; in the series with JNK1, 116 ± 4%. Besides, the remaining activity at 1 µM in the series with BTK was determined as 43 ± 2%.

Take `N=C(N)NCCC[C@@H](NC(=O)CNC(=O)[C@@H](CCCNC(=N)N)NC(=O)[C@@H](CCCNC(=N)N)NC(=O)CCCCCCCNCc1nc2c(sc3cc(Br)cnc32)c(=O)[nH]1)C(=O)N[C@H](CCCCN)C(N)=O` [Compound 1, BPTP-Aoc-(D-Arg)2-Gly-D-Arg-D-Lys-NH2]: the remaining activity at 1 µM was 97% with IKK; 111 ± 11% with TESK1; 85 ± 3% in the series with DAPK1; 99 ± 6% with Aurora A; 104 ± 22% with DDR2; 100 ± 13% in the series with JNK1. Also, the remaining activity at 1 µM with BTK was found to be 106 ± 10%.

Regarding `N=C(N)NCCC[C@@H](NC(=O)CNC(=O)[C@@H](CCCNC(=N)N)NC(=O)[C@@H](CCCNC(=N)N)NC(=O)CCCCCCCNCc1nc2c(sc3ccc(Br)cc32)c(=O)[nH]1)C(=O)N[C@H](CCCCN)C(N)=O` [Compound 2, BBTP-Aoc-(D-Arg)2-Gly-D-Arg-D-Lys-NH2], the remaining activity at 1 µM with IKK was determined as 100 ± 11%; with TESK1, 106 ± 13%; with DAPK1, 60 ± 11%; with Aurora A it was 106 ± 3%; with DDR2 it was 107 ± 7%; in the series with JNK1, 112 ± 2%. Moreover, the remaining activity at 1 µM with BTK came to 99 ± 20%.

Consider `N=C(N)NCCC[C@@H](NC(=O)CNC(=O)[C@@H](CCCNC(=N)N)NC(=O)[C@@H](CCCNC(=N)N)NC(=O)Cn1cc(CNCc2nc3c(sc4ccc(Br)cc43)c(=O)[nH]2)nn1)C(=O)N[C@H](CCCCN)C(N)=O` [Compound 3, BBTP-Amt-(D-Arg)2-Gly-D-Arg-D-Lys-NH2], for which the remaining activity at 1 µM with IKK is 90 ± 6%; with TESK1, 105 ± 1%; with DAPK1 it was 88 ± 3%; with Aurora A, 97 ± 3%; with DDR2, 112 ± 6%; in the series with JNK1, 115 ± 13%. Also, the remaining activity at 1 µM with BTK was determined as 82 ± 1%.
